In patent US20230172982A1:

Molecular target: CD20, on SUP-B15 CD20+ cells (UniProt P11836)
Assay: cell-based or functional assay

Sequence of UniProt P11836 (P11836 whole entry): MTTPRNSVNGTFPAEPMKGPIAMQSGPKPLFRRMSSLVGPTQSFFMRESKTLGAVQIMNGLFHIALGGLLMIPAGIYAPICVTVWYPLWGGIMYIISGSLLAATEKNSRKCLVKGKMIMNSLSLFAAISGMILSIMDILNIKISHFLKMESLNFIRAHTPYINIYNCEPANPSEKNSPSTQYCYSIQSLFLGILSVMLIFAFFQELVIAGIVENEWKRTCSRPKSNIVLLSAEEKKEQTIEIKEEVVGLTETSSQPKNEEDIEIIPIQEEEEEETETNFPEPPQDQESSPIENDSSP

rituximab (antibody)
ADCC by polyclonal BCMA.CAR t-haNK cells (quadracistronic): 60% | ADCC by polyclonal BCMA.CAR t-haNK cells (tricistronic): 55%
